Source: patent US20030082150A1

Key:
[1] = target: Mage-1 antigenic nonapeptide presented by the HLA.A1 molecule on cells (human) (UniProt P43355); test: cell-based or functional assay
[2] = target: HLA.A1 molecule on cells that do not express the antigen MAGE-1 (infected with control adenovirus Ad-βgal) (human); test: cell-based or functional assay

T cell receptor of the anti-Mage-1 CTL clone 82:30 (TCR)
% lysis, 51Cr release 4 h, E/T 0.1, C1R infected Ad Mage-1 (500 pfu/cell) [1]: 28% | % lysis, 51Cr release 4 h, E/T 0.1, C1R transfected with Mage-1 [1]: 19% | % lysis, 51Cr release 4 h, E/T 0.1, Gerlach E- infected Ad Mage-1 (500 pfu/cell) [1]: 2% | % lysis, 51Cr release 4 h, E/T 0.3, C1R infected Ad Mage-1 (500 pfu/cell) [1]: 44% | % lysis, 51Cr release 4 h, E/T 0.3, C1R transfected with Mage-1 [1]: 25% | % lysis, 51Cr release 4 h, E/T 0.3, Gerlach E- infected Ad Mage-1 (500 pfu/cell) [1]: 5% | % lysis, 51Cr release 4 h, E/T 1, C1R infected Ad Mage-1 (500 pfu/cell) [1]: 44% | % lysis, 51Cr release 4 h, E/T 1, C1R transfected with Mage-1 [1]: 30% | % lysis, 51Cr release 4 h, E/T 1, Gerlach E- infected Ad Mage-1 (500 pfu/cell) [1]: 6% | % lysis, 51Cr release 4 h, E/T 3, C1R infected Ad Mage-1 (500 pfu/cell) [1]: 61% | % lysis, 51Cr release 4 h, E/T 3, C1R transfected with Mage-1 [1]: 45% | % lysis, 51Cr release 4 h, E/T 3, Gerlach E- infected Ad Mage-1 (500 pfu/cell) [1]: 13% | % lysis, 51Cr release 4 h, E/T 10, C1R infected Ad Mage-1 (500 pfu/cell) [1]: 59% | % lysis, 51Cr release 4 h, E/T 10, C1R transfected with Mage-1 [1]: 40% | % lysis, 51Cr release 4 h, E/T 10, Gerlach E- infected Ad Mage-1 (500 pfu/cell) [1]: 15% | % lysis, 51Cr release 4 h, E/T 30, C1R infected Ad Mage-1 (500 pfu/cell) [1]: 62% | % lysis, 51Cr release 4 h, E/T 30, C1R transfected with Mage-1 [1]: 33% | % lysis, 51Cr release 4 h, E/T 30, Gerlach E- infected Ad Mage-1 (500 pfu/cell) [1]: 15% | TNF produced by the CTL clone, +CTL, Gerlach E+ (HLA A1+) (Mage 1+) [1]: 45 pg TNF | TNF produced by the CTL clone, +CTL, Gerlach E- infected with Ad. Mage 1, 50 pfu/cell [1]: 4 pg TNF | TNF produced by the CTL clone, +CTL, Gerlach E- infected with Ad. Mage 1, 100 pfu/cell [1]: 12 pg TNF | optical density (MTT, WEHI-164-13 viability) of 24 h supernatant, +CTL, Gerlach E+ (HLA A1+) (Mage 1+) (optical density) [1]: 0.17 | optical density (MTT, WEHI-164-13 viability) of 24 h supernatant, +CTL, Gerlach E- infected with Ad. Mage 1, 50 pfu/cell (optical density) [1]: 0.58 | optical density (MTT, WEHI-164-13 viability) of 24 h supernatant, +CTL, Gerlach E- infected with Ad. Mage 1, 100 pfu/cell (optical density) [1]: 0.355 | % lysis, 51Cr release 4 h, E/T 0.1, C1R infected Ad β gal (500 pfu/cell) [2]: 2% | % lysis, 51Cr release 4 h, E/T 0.1, Gerlach E- infected Ad β gal (500 pfu/cell) [2]: 2% | % lysis, 51Cr release 4 h, E/T 0.3, C1R infected Ad β gal (500 pfu/cell) [2]: 1% | % lysis, 51Cr release 4 h, E/T 0.3, Gerlach E- infected Ad β gal (500 pfu/cell) [2]: 0% | % lysis, 51Cr release 4 h, E/T 1, C1R infected Ad β gal (500 pfu/cell) [2]: 3% | % lysis, 51Cr release 4 h, E/T 1, Gerlach E- infected Ad β gal (500 pfu/cell) [2]: 0% | % lysis, 51Cr release 4 h, E/T 3, C1R infected Ad β gal (500 pfu/cell) [2]: 4% | % lysis, 51Cr release 4 h, E/T 3, Gerlach E- infected Ad β gal (500 pfu/cell) [2]: 0% | % lysis, 51Cr release 4 h, E/T 10, C1R infected Ad β gal (500 pfu/cell) [2]: 2% | % lysis, 51Cr release 4 h, E/T 10, Gerlach E- infected Ad β gal (500 pfu/cell) [2]: 0% | % lysis, 51Cr release 4 h, E/T 30, C1R infected Ad β gal (500 pfu/cell) [2]: 3% | % lysis, 51Cr release 4 h, E/T 30, Gerlach E- infected Ad β gal (500 pfu/cell) [2]: 0% | TNF produced by the CTL clone, +CTL, Gerlach E- infected with Ad. βgal, 50 pfu/cell [2]: 0 pg TNF | TNF produced by the CTL clone, +CTL, Gerlach E- infected with Ad. βgal, 100 pfu/cell [2]: 0 pg TNF
